The values below are quoted from earlier work in paper PMC6173998.

Like-named read-outs stand apart in the source and are kept apart here.

For data set [1], the target named is Placental bikunin (Homo sapiens) (UniProt O43291).
Data set [2] deals with Corn Hageman factor inhibitor (Zea mays) (UniProt P01088).
The target of data set [3] is Tissue factor pathway inhibitor-2 (KD1-WT) KD1 (Homo sapiens) (UniProt P48307).
Data set [4] deals with Protease nexin-2 (Homo sapiens) (UniProt P05067).
Data set [5] concerns the target Aprotinin (Bos taurus) (UniProt P00974).
For data set [6], the target named is KD APPH Kunitz domain (Homo sapiens) (UniProt Q06481).
Data set [7] has the same target. The source holds these as a separate data set.
The target is the same in data set [8]. This is another data set of the same source.
Data set [9] shares this target. The source holds these as a separate data set.
The target in data set [10] is FXIa (Homo sapiens) (UniProt P03951).
Data set [11] shares this target. This is another data set of the same source.
The target is the same in data set [12]. This is another data set of the same source.
The target is the same in data set [13]. This is another data set of the same source.

Chain of KD APPH Kunitz domain (Homo sapiens) (Q06481 306-364): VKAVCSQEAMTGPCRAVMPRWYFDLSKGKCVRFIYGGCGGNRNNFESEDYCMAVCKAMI
Chain of placental bikunin (O43291 28-197): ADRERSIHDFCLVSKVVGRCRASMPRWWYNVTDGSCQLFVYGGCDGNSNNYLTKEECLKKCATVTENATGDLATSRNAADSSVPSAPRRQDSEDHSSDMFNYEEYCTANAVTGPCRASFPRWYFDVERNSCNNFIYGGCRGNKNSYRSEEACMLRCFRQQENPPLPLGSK
Chain of Placental bikunin (Homo sapiens) (O43291 28-197): as above
Chain of protease nexin-2 (P05067 18-687): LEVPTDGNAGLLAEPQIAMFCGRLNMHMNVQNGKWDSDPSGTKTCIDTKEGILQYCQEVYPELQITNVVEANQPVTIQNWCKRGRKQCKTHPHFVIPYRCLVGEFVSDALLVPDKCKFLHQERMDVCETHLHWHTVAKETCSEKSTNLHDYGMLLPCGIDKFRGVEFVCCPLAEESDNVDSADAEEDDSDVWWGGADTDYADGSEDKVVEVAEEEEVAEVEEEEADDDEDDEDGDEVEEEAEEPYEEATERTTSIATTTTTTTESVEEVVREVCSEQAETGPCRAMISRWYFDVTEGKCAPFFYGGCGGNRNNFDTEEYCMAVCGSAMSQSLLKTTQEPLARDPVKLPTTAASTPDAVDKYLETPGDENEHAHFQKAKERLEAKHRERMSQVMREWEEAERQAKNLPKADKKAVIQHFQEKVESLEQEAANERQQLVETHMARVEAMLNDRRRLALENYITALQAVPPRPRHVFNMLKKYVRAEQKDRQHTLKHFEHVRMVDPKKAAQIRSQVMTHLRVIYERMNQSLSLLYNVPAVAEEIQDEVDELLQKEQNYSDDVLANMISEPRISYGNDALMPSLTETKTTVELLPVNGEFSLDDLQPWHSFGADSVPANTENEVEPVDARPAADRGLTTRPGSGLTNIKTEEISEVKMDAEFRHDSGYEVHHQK
Chain of Protease nexin-2 (Homo sapiens) (P05067 18-687): as above
Chain of Plasmin (P00747 581-810): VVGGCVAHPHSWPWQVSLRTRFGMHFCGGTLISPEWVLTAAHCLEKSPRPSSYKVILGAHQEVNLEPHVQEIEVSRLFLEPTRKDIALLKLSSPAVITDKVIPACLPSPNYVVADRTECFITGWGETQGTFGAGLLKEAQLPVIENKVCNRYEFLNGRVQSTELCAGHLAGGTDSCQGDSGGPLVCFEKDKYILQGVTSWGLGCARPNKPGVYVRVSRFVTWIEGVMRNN
Chain of Corn Hageman factor inhibitor (Zea mays) (P01088 29-138): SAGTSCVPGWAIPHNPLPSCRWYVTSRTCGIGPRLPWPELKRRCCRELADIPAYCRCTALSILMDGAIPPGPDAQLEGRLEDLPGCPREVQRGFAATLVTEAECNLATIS
Chain of corn Hageman factor inhibitor (P01088 29-138): as above
Chain of TFPI-2 (KD1-WT) KD1 (P48307 36-86): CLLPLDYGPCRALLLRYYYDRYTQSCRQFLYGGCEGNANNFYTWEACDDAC
Chain of Tissue factor pathway inhibitor-2 (KD1-WT) KD1 (Homo sapiens) (P48307 36-86): as above
Chain of Plasma kallikrein (P03952 391-638): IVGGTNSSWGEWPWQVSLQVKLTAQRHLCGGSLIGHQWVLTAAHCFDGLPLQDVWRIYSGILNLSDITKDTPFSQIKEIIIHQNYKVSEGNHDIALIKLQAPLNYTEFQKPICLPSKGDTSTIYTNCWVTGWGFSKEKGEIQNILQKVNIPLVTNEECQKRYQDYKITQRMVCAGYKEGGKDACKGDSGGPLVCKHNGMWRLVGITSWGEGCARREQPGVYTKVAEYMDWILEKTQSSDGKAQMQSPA

Take Factor XIa (from UniProt P03951): the Ki (as a rule, the dissociation constant of the complex between target and ligand, obtained from inhibition or displacement) in data set [1] was 0.006 µM; in data set [2], 5.4 µM; in data set [3], 0.015 µM; in data set [4] it was 0.0004 µM; in [5], 0.288 µM; in data set [6] it was 0.014 µM.
As to “Glandular kallikrein (from UniProt P06870)”, the Ki in data set [7] was 0.0088 µM.
Turning to Plasma kallikrein (from UniProt P03952), in [8], the Ki was 0.086 µM.
Plasmin (from UniProt P00747): the Ki in data set [9] is 0.081 µM.
Consider “TFPI-2 (KD1-WT) KD1 (from UniProt P48307)”, for which the Ki in data set [10] is 0.015 µM.
For “corn Hageman factor inhibitor (from UniProt P01088)”, the Ki in data set [11] is 5.4 µM.
For placental bikunin (from UniProt O43291), the Ki in data set [12] is 0.006 µM.
With protease nexin-2 (from UniProt P05067), the Ki in data set [13] was 0.0004 µM.
